The values that follow come from the nanobody polyreactivity screen of Harvey et al. (2022).

The data set is described as follows: yeast display, Sf9 membrane polyspecificity reagent, FACS + sequencing; frameworks hold sequencing errors. In short, it runs like this: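 Galactose induction of a Saccharomyces cerevisiae BJ5465 synthetic nanobody display library ran 36–48 hours. The cells were then stained for 1 hour at 4 °C with 10% biotinylated, detergent-solubilized Sf9 membrane reagent, pulled down on streptavidin microbeads and FACS-sorted into low and high (top ~1%) gates on expression and reagent-binding fluorescence. Labels for polyreactivity follow the gate of origin.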
On to “QVQLGESGGGLVQSGGSLRLSCAASGIIFRNYAMGWYRPAPGKERELVATITGDGGSTYYADSVKGRFTISRDNAKNTVYFQMNSLKPEDTAVYYCAAEYHHYYYYWGEYWGQGTQVTVSS”, for which the “polyreactivity (PSR sort gate)” value was “low polyreactivity”.

On to “QVQLGESGGGLVQSGGSLRLSCAASGYIFNHNAMGWYRQAPGKEWELVAGISIGGSTYYADSVKGRFTISRDNAKNTVYLQMNRLIPEDTAVYYCNTQPPLIYRGVKSDYSGQGTQVTVSS”, for which the “polyreactivity (PSR sort gate)” value was “low polyreactivity”.

As for “QVQLGESGGGVVQAGVSLRLSCAASGSTFTLYAMGWYRQAPGKERELVAAINGAGSTYYADSVKGRFTISRDNAKNTVYLQMNSLKPEDTAVYYCAKDLKYGWSDYWGQGTQVTVSS”, the “polyreactivity (PSR sort gate)” value is “low polyreactivity”.

As to “QVQLGESGGSLVQAGASLRLSCAASAITFYGNAMGWYRQAPGKERELVAAIRRGGSTNYADSVKGRFTISRDNAKKTVYLQMNSLKPEDTAVYYCAADSYGYTFRNYRVGYWGHGTQVTVSS”, the “polyreactivity (PSR sort gate)” value is recorded as “high polyreactivity”.

On to “QVQLGESGGVLVQAGGSLRLSCSASGSTFYSNAMGWYRQAPVKEREFVAAITGSGGSTYYADSVKGRFTISRDNAQNTVYLQMNSLKPEVTAVYYCAAGTRIYNSWIRFDYWGQGTQVTVSS”, for which the “polyreactivity (PSR sort gate)” value was “high polyreactivity”.

As to “QVQLGESGGVLVQAGGSLSLSCAASGNIFGRYAMGWYRQAPGKEWELVAANTRSAGSTYYADSVKGRFTISRDNEKTTVYFQMNSLKPEDTAVYYCAAAHWGYAYRRYGYGGQGTQVTVSS”, the “polyreactivity (PSR sort gate)” value is “high polyreactivity”.

On to “QVQLGESRGGLVQAVGSLSLSCAAYGFTYDKNAMGWYIQAPGNESALDAAINIRSTYYAESVKGRFTISRDNAKNTVYLQMNSMKPEDTAVYYCANEVPSGYWFNYYYWGQGTQVTVSS”, for which the “polyreactivity (PSR sort gate)” value was “low polyreactivity”.

Take “QVQLGESVGGLVQAGGSLRLSCAASGSILFPYPMGWYRQAPGKERELVAAISWSGDSTRYADSVKGRFTISRDNAKNTVYLQMNSLKPEVTAVYYCATSSDATGTFAPMDSWGQGTQVTVSS”: the “polyreactivity (PSR sort gate)” value is listed as “low polyreactivity”.

As for “QVQLGETGGGLVQAGGSLRLICAASGSTFTINGMGWSRQAPGKDRELVAAITSGGSTYYADSVKGRFTISRDNAKNTVYLQMNSLKPEDTAVYFCAAADGRDYWGQGTQVTVSS”, the “polyreactivity (PSR sort gate)” value was “low polyreactivity”.

On to “QVQLHESGGGLEQAGGSLRLSCAASGYISDIGTMGWYRQAPGKEREFVATIVVGSTTNYADSVKGRFTISRDNAKNSVYLQPESGRYRGVLLRGWLLAVGKFTYWGQGTQETVSS”, for which the “polyreactivity (PSR sort gate)” value was “low polyreactivity”.

“QVQLHESGGGLVQAGGGLRLSCAASGSISSTGFMGWYRQAPGKEREPVAAIAPGTTTYYADSVKGRFTISRDNAKNTVYLQMNSLRPEDTAVYDCADFTDNRVAFLYWGQGTQVTVSS”: the “polyreactivity (PSR sort gate)” value is on record as “low polyreactivity”.

Turning to “QVQLHESGGGLVQAGGGLRLSCAASGSISSTGFMGWYRQPPGKEREPVAAIAPGTTTYYADSVKGRFTISRDNAKNTVYLQMISLRPEDTAVYYCAVFTDNRVAFLYWGQGTQVTVSS”, the “polyreactivity (PSR sort gate)” value was “low polyreactivity”.

Take “QVQLHESGGGLVQAGGSLRLSCAASGTISVTYNMGWYRQAPGKEREFVAGNSTGATTNYADSVKDRFTISRDNAKNTLYLQMNRLKPEDTAVYYCAAHIYRQDHFYYWGQGTQVTVSS”: the “polyreactivity (PSR sort gate)” value is “low polyreactivity”.

With “QVQLHESGGGLVQAGGSLRLSCAASGTISYAGPMGWYRQAPGKEREFVAGIGVGSNTNYADSVKGRYTIIRDNAKNTVYLQMNSLKPVDTAVYYCAVGGYAPLGRPYWGQGTQVTVSS”, the “polyreactivity (PSR sort gate)” value is listed as “low polyreactivity”.

As for “QVQLHESGGGLVQAGGSLRLSCAASGTITYAGPMGWYRQAPGKEREFVAGIGVGSNTNYADSVKGRYTIIRDNAINTVYLEKNSLKPEDTPVYYCAVGGYAPLGRPYWGQVTQVTVSS”, the “polyreactivity (PSR sort gate)” value is recorded as “low polyreactivity”.

With “QVQLHESGGGLVQAGGSLRMSCAASGTISYAGPMGWYLQATGKESEFVAGIGVGSNTNYADSVKGRYTIIRDNAINTLYLQLNSLQPEDTAVYYGAVGGYAPLGRPYWGQGTQVTVRS”, the “polyreactivity (PSR sort gate)” value is “low polyreactivity”.

As for “QVQLHESPGGLVLAGGSLRLSCAESGYISWSFTMGLYRKAPGKEREFVAGITYGGISYYADSVKGRFTISRDNAIITVYLQMNTLKPEDTAVYYCAAPQTNPYVYVYWGQGTQVTVSS”, the “polyreactivity (PSR sort gate)” value is listed as “high polyreactivity”.

Consider “QVQLIESGGGLVQAGGSHRLSCAASGRIFAYYAMGWYRQAPGKERELVAGISQRGSRTYYADSVKGRFTISRDNAKNTVYLQMNSLKPEDTAVYYCAARDRRSVTMDYWGQGTQVTVSS”, for which the “polyreactivity (PSR sort gate)” value is listed as “high polyreactivity”.

As to “QVQLIESGGGLVQAGGSLRLSCAASGRIFYYNAMGWYRQAPGKERELVAVITRSGGSTYYADSVKGRFTISRDTAKNTVYLQMNSLKQEDTAVYYCAKTWKGGYGYDYWGQGTQVTVSS”, the “polyreactivity (PSR sort gate)” value was “low polyreactivity”.

Consider “QVQLIESGGGLVQAGGSLRLSCAASGRTFRRYAMGWYRQAPGKERELVAAIDASGGSTYYADSVMGRFTISRDTSKNTVYLQMTILKQEDSAVSYCNTCSGQLQLQGGRHEYWGQGTQVTVSS”, for which the “polyreactivity (PSR sort gate)” value was “high polyreactivity”.

With “QVQLKENGVGLVQAGGSLRMSCAASGYISHADEMGWNSQAPGKEHELVASISNGGSTNYADSVKGRFTISRDNAKNSVYLQMNSLKSEDTAVYYCAAWTGQVDINYYWGQGSQVTVSS”, the “polyreactivity (PSR sort gate)” value is on record as “low polyreactivity”.

As to “QVQLLDSGGGLVQAGCSLRLSCAASGLIFHRNAMGWYRQAPGKERELVAIISSGGGTTYYADSVKGRFTISRDNAKNTVYLQKNSLKPEDTAVYYCNARPRAYGSRGFDYWGQGTQVTVSS”, the “polyreactivity (PSR sort gate)” value is reported as “high polyreactivity”.

In the case of “QVQLLDSGGGLVQAGGSLRLSCAASGFTFDDYDKGWYRPPPGKERELVAAISWSGGSTYYADSVKGRFTISRDNAKNTVYLQMNSLKPEDTAVYYCAAERSYGGFDYWGQGTQVTVSS”, the “polyreactivity (PSR sort gate)” value is listed as “low polyreactivity”.

With “QVQLLDSGGGLVQAGGSLRLSCAASGLILVPNTMGWYRQAPGKERELVADIRSGGTTNYADSVKGRFTISRDNAKNTVYLVMNSLKPEDTAVSYCAKEKYDYVGDYEVDYWGHGTQVTVSS”, the “polyreactivity (PSR sort gate)” value is reported as “low polyreactivity”.

In the case of “QVQLLDSGGGLVQAGGSLRLSCAASGSTISRNAMGWYRQAPGKERELVAAITSKGDSSYYADSVKGRFTISRDNAKNTVYLQMNSLKPEDTAVYYCAKDGVPAQDIGMDYWGQGTQVTVSS”, the “polyreactivity (PSR sort gate)” value was “low polyreactivity”.

“QVQLLERGGGLVQAGGSLRLSCMASGSILVDRMSWYRQAPGKEHELVATIYDGGITYYADSMTGRFTISRDNAKNTVYLQMIRQRPEDTAVYYCGASFERYRYHVYCGQGTQVTVSS”: the “polyreactivity (PSR sort gate)” value is given as “low polyreactivity”.

As for “QVQLLESGAGLVQAGGSLRLIWAASGIIIGHYGMGWYRQAPGKERELVAVISSSGGRTYYADSVKGRFTISRDNAKNTVYLQMNSLKPEDTAVYYCNGGPQVRYWQGTYEYWGQGTQVTVSS”, the “polyreactivity (PSR sort gate)” value is “high polyreactivity”.

With “QVQLLESGGALVQAVGSLRLSCMASGSILGDRMSWYRQAPGKEHELVATIYDGGITYYADSMKGRFTISRDNAIHTVYLQMNSLRPEDTAVYYCGASLEGYRYNVYCGQGTQVTVSS”, the “polyreactivity (PSR sort gate)” value is given as “low polyreactivity”.

Take “QVQLLESGGGIVQAGGSLRLSCAASGSIFRYYAMGWYRQAPGKEREFVASITYRGGRTYYADSVKGRFTISRDNAKNTVYLQMNSLKPEDTAVYYCAARTRAGAWTSKYHDYWGQGTQVTVSS”: the “polyreactivity (PSR sort gate)” value is listed as “high polyreactivity”.

Consider “QVQLLESGGGIVQAGGSLRLSCAASGSIFWGYAMGWYRQAPGKERELVAAISSSGGNTYYADSVKGRFTISRDNAKNTVYLQMNSLQPEETAVYYCAATPEFYGGKITDVSSQYGYWGQGPQVTVSS”, for which the “polyreactivity (PSR sort gate)” value is reported as “low polyreactivity”.

Consider “QVQLLESGGGLDQAGGSLRLSCAASGRTFDRYAMGWYRQAPGKERELVAAISGRGGSTYYADSVKGRFTISRDNAKNTVYLQMNSLKPEDTAVYYCAARGSLWGAPTDYYYWGQGTQVTVSS”, for which the “polyreactivity (PSR sort gate)” value is listed as “high polyreactivity”.

With “QVQLLESGGGLDQAGGSLRLSCAAYGRIFGPNAMGWYRQAPGKERELVAAISWSGGTTRYADSVKGRFTISRDNAKNSVYLQMNSQKPEDTAVYYCAASADDRRSGKRYDSWGHGTQVTVSS”, the “polyreactivity (PSR sort gate)” value is “high polyreactivity”.

As for “QVQLLESGGGLDQAGGTLRLSCAASGGTINLYAMAWYRPAPGKERELVAAISWSGGTTYYADSVKGRFTLSRDNAKNTVYLQIISLKPVDTAVYYCAAYFRTSLGTYDYWGQGTKVTVSS”, the “polyreactivity (PSR sort gate)” value is “high polyreactivity”.

In the case of “QVQLLESGGGLGQAGGRLRLICAASGRTFTPYAMGWYRPAPGKERELVAAIDTSGGSTYADSVKGRFTISRDNAKNTVYLQMNCQKPEDTAVYYCATRGFYSWDYWYLWEYDYWGQGTQVTVSS”, the “polyreactivity (PSR sort gate)” value is recorded as “low polyreactivity”.

Consider “QVQLLESGGGLGQAGGSLRLSCAASGSILSINGMGWYRQAPGKERELVATIDGSDGSTFYADSVKGRFTISRDNAKNTVYLQMNSQKPEDTAVYYCAAENFWQTKEYDYWGQGTQVTVSS”, for which the “polyreactivity (PSR sort gate)” value was “low polyreactivity”.

In the case of “QVQLLESGGGLLQAGGSLRLSCAASGSIFDFNAMGWYRQAPGKERELVAAITYIGDSTYYADSVKGRFTISRDNAKNTVYLQMNILKPEDTAVYYCANYRYPSRQYSFPLGYDYWGQGTQVTVSS”, the “polyreactivity (PSR sort gate)” value was “high polyreactivity”.

On to “QVQLLESGGGLVHAGGSLRLSCAASGRIFLGNAMGWYIQAPRKERELVASISRGGGTTYYADSVKGRITISRDNAKNTVYLQMNRLKPEDTAVYYCAARVYYVVQHGKYVYWGQGTQVTVSS”, for which the “polyreactivity (PSR sort gate)” value is on record as “high polyreactivity”.

Turning to “QVQLLESGGGLVQAGGCLRLSCAASGSIFYPYALGGYRQAPGIVRELVAAISSREGRSYYADSVKGRFTISRDNGKKTVYLQMNSLKPEDTAVYYCAACSFNYGHRFYWGQGSQVTVSS”, the “polyreactivity (PSR sort gate)” value was “high polyreactivity”.

On to “QVQLLESGGGLVQAGGFLRLSCASSGSTFFIYAMGWYRPAPGKERELDAAISWSGGSTYYADSVKGRFTISPDKANNTVYLQMICLKPEYTAVYYCADESYYFDEYYWGQATQVTVSS”, for which the “polyreactivity (PSR sort gate)” value is reported as “high polyreactivity”.

“QVQLLESGGGLVQAGGILRLSCAASGRIIVYYAMGWYRQAPGKERELVAAITRGGSTKYADSVKGRFTISRDNAKNTVYLQMNSLKPEDTAVYYCATATSRRSGYDYWGQGTQVSVSS”: the “polyreactivity (PSR sort gate)” value was “high polyreactivity”.

With “QVQLLESGGGLVQAGGRLRLSCAASRNTFRQTAMGWNRQAPGKETELVASITSGGSTYYADSVQGRFTISRDNAKNTVYLQMNSLNPEDTAVYYCASRYIRSASWFYRIYDYWGQGTQVTVSS”, the “polyreactivity (PSR sort gate)” value was “high polyreactivity”.
